Data set [1] has as its target Endogenous glucocorticoid receptor (90-kDa GR) of NALM-6 human leukemia cells (human) (UniProt P04150). The experiment in a line: cell-based or functional assay.
Data set [2] addresses Doubly mutated GR (double mutagenized GR, both CASP1 cleavage sites LLID and IKQE replaced by alanines), expressed from pLX304 lentivirus (human) (UniProt P04150). Description: cell-based or functional assay.
For data set [3], the target named is T1, Glucocorticoid receptor (NR3C1) with the LLID motif mutated to AAAA by site-directed mutagenesis of Myc-DDK tagged NR3C1.
T1 chain: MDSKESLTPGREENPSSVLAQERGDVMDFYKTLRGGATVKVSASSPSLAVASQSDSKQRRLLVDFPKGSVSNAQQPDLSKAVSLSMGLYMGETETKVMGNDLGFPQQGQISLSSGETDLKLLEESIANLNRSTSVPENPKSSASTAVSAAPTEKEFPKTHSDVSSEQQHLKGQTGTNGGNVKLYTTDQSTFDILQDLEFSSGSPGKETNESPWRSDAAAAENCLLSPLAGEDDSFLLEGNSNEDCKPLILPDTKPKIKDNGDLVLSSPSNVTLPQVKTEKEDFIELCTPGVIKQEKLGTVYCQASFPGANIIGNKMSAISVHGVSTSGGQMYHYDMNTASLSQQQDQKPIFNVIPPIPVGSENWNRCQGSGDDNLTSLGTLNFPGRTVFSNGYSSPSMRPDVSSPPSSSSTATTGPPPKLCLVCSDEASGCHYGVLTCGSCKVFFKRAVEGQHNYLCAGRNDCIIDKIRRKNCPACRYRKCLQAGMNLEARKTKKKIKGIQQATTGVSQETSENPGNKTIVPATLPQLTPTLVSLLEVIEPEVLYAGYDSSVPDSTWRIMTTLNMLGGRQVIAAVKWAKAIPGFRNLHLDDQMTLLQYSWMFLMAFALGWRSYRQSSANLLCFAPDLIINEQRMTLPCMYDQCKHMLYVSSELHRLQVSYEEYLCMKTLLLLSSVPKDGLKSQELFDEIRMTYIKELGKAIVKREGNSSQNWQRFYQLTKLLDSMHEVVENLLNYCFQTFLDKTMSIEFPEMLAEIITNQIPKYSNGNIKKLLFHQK

This is an account of results in patent US20160230173A1.

Take “Full-length CASP1 (Origene catalog # RC218364; GenBank Accession No. NM_033292) overexpressed in Nalm6 leukemia cells by lentivirus (from UniProt P29466 1-404) (enzyme)”: in data set [1], the GR protein level in CASP1-overexpressing Nalm6 cells 24 hours after activation of CASP1 (western blot) is 35 % reduction and the level of 90-kDa GR after activation of CASP1 (LPS/ATP) in shNT CASP1-overexpressing NALM-6 cells (western blot, normalized for HSP90) came out at 2 fold lower. The molecule further yielded a fold decrease in prednisolone LC50 (MTT assay) in CASP1-overexpressing NALM-6 cells expressing GR without CASP1 cleavage sites in data set [2] of 9.4 fold.

B1: Recombinant human CASP1 (Enzo Life Sciences CASP1 assay kit for drug discovery, catalog number BML-AK701-0001) (protein)
chain: NPAMPTSSGSEGNVKLCSLEEAQRIWKQKSAEIYPIMDKSSRTRLALIICNEEFDSIPRRTGAEVDITGMTMLLQNLGYSVDVKKNLTASDMTTELEAFAHRPEHKTSDSTFLVFMSHGIREGICGKKHSEQVPDILQLNAIFNMLNTKNCPSLKDKPKVIIIQACRGDSPGVVWFKDSVGVSGNLSLPTTEEFEDDAIKKAHIEKDFIAFCSSTPDNVSWRHPTMGSVFIGRLIEHMQEYACSCDVEEIFRKVRFSFEQPDGRAQMPTTERVTLTRCFYLFPGH
With B1, the “cleavage of mutated GR in CASP1 enzymatic assay (western blot)” value in data set [3] was “Site-directed mutagenesis of the LLID motif (SEQ ID NO: 20) ablated cleavage of the glucocorticoid receptor at this location (FIG. 3B) and revealed a secondary CASP1 cleavage site in the GR”.
